{"source": "paper PMC9898101", "system": "MBP-ERS WT (human)", "test": "EMSA", "settings": "1 mM Mg2+; 5 ug/mL heparin (unit prefix not given); none (in vitro transcript); 25 mM Tris-HCl pH 7.5, 50 mM NaCl, 1 mM MgCl2, 1 mM DTT, 5 ug/mL heparin (prefix not given), 10 nM 32P-tRNA, room temperature 30 min; native 4-16% gel on …"}
{"substance": "human tRNAGlu(TTC)", "values": [{"measurement": "Kd", "value": 516, "unit": "nM"}]}
